Data as given in publication PMC4004102.

Tests used:
[1] = molecular target: FAM-AIP-I (fluorescein-labeled AIP-I analog) (Staphylococcus aureus); assay: fluorescence polarisation
[2] = molecular target: AgrC-I (wild type) dimer embedded in nanodiscs (Staphylococcus aureus); assay: SEC-MALS

B1: AgrC-I (wild type) dimer embedded in nanodiscs (receptor)
chain: MELLNSYNFVLFVLTQMILMFTIPAIISGIKYSKLDYFFIIVISTLSLFLFKMFDSASLIILTSFIIIMYFVKIKWYSILLIMTSQIILYCANYMYIVIYAYITKISDSIFVIFPSFFVVYVTISILFSYIINRVLKKISTPYLILNKGFLIVISTILLLTFSLFFFYSQINSDEAKVIRQYSFIFIGITIFLSILTFVISQFLLKEMKYKRNQEEIETYYEYTLKIEAINNEMRKFRHDYVNILTTLSEFIREDDMPGLRDYFNKNIVPMKDNLQMNAIKLNGIENLKVREIKGLITAKILRAQEMNIPISIEIPDEVSSINLNMIDLSRSIGIILDNAIEASTEIDDPIIRVAFIESENSVTFIVMNKCADDIPRIHELFQESFSTKGEGRGLGLSTLKEIADNADNVLLDTIIENGFFIQKVEIINN
modifications: not checked
- Kd [1]: 122 nM
- stoichiometry N [2]: 2
